Literature values as cited in PMC6039870.

Target: RNH1 (Homo sapiens) (UniProt P13489)
UniProt P13489, sequence (P13489 2-461): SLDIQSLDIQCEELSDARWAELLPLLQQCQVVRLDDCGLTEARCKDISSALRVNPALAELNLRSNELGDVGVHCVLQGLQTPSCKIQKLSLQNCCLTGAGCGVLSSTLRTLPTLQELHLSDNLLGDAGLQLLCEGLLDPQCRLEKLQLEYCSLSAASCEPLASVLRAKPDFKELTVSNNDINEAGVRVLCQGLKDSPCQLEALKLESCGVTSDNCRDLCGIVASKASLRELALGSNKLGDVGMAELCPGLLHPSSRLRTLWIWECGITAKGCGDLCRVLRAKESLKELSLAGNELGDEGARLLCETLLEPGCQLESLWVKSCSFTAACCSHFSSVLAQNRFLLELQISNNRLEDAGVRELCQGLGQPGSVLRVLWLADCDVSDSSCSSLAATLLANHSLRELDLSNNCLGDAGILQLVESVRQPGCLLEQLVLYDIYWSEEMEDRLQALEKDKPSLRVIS

Kd: 0.0003 pM
Substance: RNASE1 (from UniProt P07998)
